# Laboratory results reported in the DeepSol protein solubility set.
# Test: soluble on expression in E. coli; label from the status in PepcDB or PDB records
row,Sequence,soluble on expression in E. coli
1,MGSDKIHHHHHHMAIGTLEATTLIRGRAMTTVLPSPELIASFVDIVGPGNALTAPADTAPYLVESRGLYRGTTPLVLRPGSVEEVSLVMRLASQTRTAVVPQGGNTGHVAGQIPREGKADVVLSLERLNRIRDIDPVGNVIVADAGCILADIQKAADDVDRLFPLSLGSEGSARIGGNLSTNAGGTAVLAYGNMRQLCLGLEVVLPTGEIWDGLRRLRKDNTGYDLRDLFIGAEGTLGVITGAVLKLFPKPRGHQVAFAGLRSVEDALTLFDRATSVCGPALTGFELMPRLGIEFTTRHIAGVRDPMETTHPWYALIDISTSDTAESAERMVQDLLEAVIADGLVENAVIAQNEAQRRALWHMRESMSPAQKPEGGSIKHDVSVPVSSIPAFMTEADALVSKAIPGARICAFGHMGDGNIHYNISQPVGADKQSFLDRWREINAIVHAVVLKHDGSISAEHGIGQLKRDELAAIRSPIEIELMRRIKHAFDPAGIMNPDKVLREDRGE,not soluble
2,MGSDKIHHHHHHMKHIGIIDVGSNSVRLLFAEITSKSSFKILTEFKEYVRLGSGFDSKGNITDNKIDSLISVLNLYKNFCNRFEDTEMVVTATEAFRRAKNQESIIQTVKNNLNLNIRVLSGEEEAYYDYFAAINTLDIKDGLIMDIGGSSTELILVANRTLKECVSLQFGAITLIEKFNIKDSIDEKQEKMLKDFLLESFSSIPWLKSISSTTLIGIGGSIRNIGKISKKQKDYPLNLIHNYIMPAKSAEDIYNDVKNKTLEQRKKIKGLSKDRADIFVGASLAVSMLVNILSINEIIICRNGLREGLLLSKLFHKKPIDNILDFSINNVLINNSINITHSFHVYKLTSLLFSSLQSVHKINISLDKVIKTASMFHNAGVNISYYYHHRHSAYIILNSSLYGISHKECVMSACIDIYQRSENIQSMLNEYGNMLEKEDIYAIKVIGILLRIAENLDKDLSGSIYDLKCIVDDAVVIIKTYSKEPSDFLISEAQNSSGLFKNTFNKSLYIV,not soluble
3,MSKAIKQNLADSKKMSAELFCLTYGAMVTEMLKDYEDPKDVTIQLDKMGFNMGTRLADDFLAKNANVPRCVDTRQIADVLCRNAIPCYLGISATASSWTSGDREFTITLEANPLTELVQVPAHLVSAGLSYSQLIAGAIRGALEAVHFKVYASATDTGANTEIRIRFDQVLKDSLPAGEDD,not soluble
4,MGSDKIHHHHHHMAGAFDAGFWLPVLERLPDFRGDCIDMGFYGQPKRPKVPRPLILAHSMGLAWALAHIPRPWAGVFAVNAFPRFTRSPTFVEGVPPRLIERMLARFDETPAQVTADFLTRCGLDNPDTSAIDAAPLKDELAWLARCDERTALRMLPCPVLALAGTSDPIVPQGMSTASFAPDTLTLVDGAGHLLPLTHPDWVAAQIRLFAARLEA,not soluble
5,MQINGKAPRNKDLEPHSFELWLNAAKTNLDKYEMALIITATLGLRRGEVMGLRNESIKISHDQINDADVAQISIDMQRNTNELNGGPLKTKSSYRTIWAFGKTVDHLKYAMITADNLRQRNNIQAEKHWLWLNNDGNPLHPTHLNRLMRRVSNRSGVEVYPHLLRHYFATQAIAANKPQIDVMHYLGHKNLQMTADYTRSTKAASLNVFNSIDKFLLEHHHHHH,soluble
6,TFGPVFEDQPLSVLFPEESTEEQVLLACRARASPPATYRWKMNGTEMKLEPGSRHQLVGGNLVIMNPTKAQDAGVYQCLASNPVGTVVSREAILRFGFLQEFSKEERDPVKAHEGWGVMLPCNPPAHYPGLSYRWLLNEFPNFIPTDGRHFVSQTTGNLYIARTNASDLGNYSCLATSHMDFSTKSVFSKFAQLNLAAEDTRLFAPSIKARFPAETYALVGQQVTLECFAFGNPVPRIKWRKVDGSLSPQWTTAEPTLQIPSVSFEDEGTYECEAENSKGRDTVQGRIIVQAQPEWLKVISDTEADIGSNLRWGCAAAGKPRPTVRWLRNGEPLASQNRVEVLAGDLRFSKLSLEDSGMYQCVAENKHGTIYASAELAVQA,soluble
7,MNRSLANVILGGYGTTSTAGGKPMEISGTHTEINLDNAIDMIREANSIIITPGYGLCAAKAQYPIADLVKMLTEQGKKVRFGIHPVAGRMPGQLNVLLAEAGVPYDIVLEMDEINHDFPDTDLVLVIGANDTVNSAAQEDPNSIIAGMPVLEVWKSKQVIVMKRSLGVGYAAVDNPIFYKPNTAMLLGDAKKTCDALQAKVRESYQK,soluble
8,MKKTHINVIGAGLAGSEAAYQIAKRGIPVKLYEMRGVKQTPQHKTDKFAELVCSNSLRGAAITNAVGLLKEEMRRLDSVIIKAAEVTQVPAGGALAVDREGFSDFVTREVSNHPLVEVIREEITDLPEDEITIIATGPLTSDKLAEKIHEFNGADGFYFYDAAAPIIDANSINFDKVYKKSRYDKGEADYINCPMTKEEFQAFQEALISAEEAPLNSFEDLKVFEGCMPIEEMAKRGYKTMLFGPMKPVGLEYPEDYKGPRDGDFKTPYAVVQLRQDNASASLYNIVGFQTHLKWGEQKRVFQMIPGLENAEFVRYGVMHRNSYMDSPNLLKQTFQSRKQENLFFAGQMTGVEGYVESAASGLVAGINAVKLFNDEEVVIFPKTTAIGSLPYYITHTDSKHFQPMNVTFGIVEELEGPRIRDKKERYTKVAERALNSLTDIISKDNLLEHHHHHH,soluble
9,MADNINESEIIERLNSAPSVRGFFIATVDVFNESIDGLIQRIFRKDNFAVQSVVGPLLQDSGPLGDLSVRLKLLFGLGVLPDDIYHDIEDIIKLKNHLNSDASDYEFTDPNILEPIKKLHLVKKMGMVQLEVNEPDDDIDLEFYQLQLQRQQQIIKSGLSLAIVEICNELGK,soluble
10,MKIAVVGAGLTGLKTAKELAEHAKVVVFEPDDVGGLVATFREFSIEKFYHHCFRDDAFLLEEIKRCGLKSKLVWKIAKTGFAANGKIYPLNTPFEILRYPLLTFGEKIRLARFTLKSRKLNYEDFDDVGVSEGIREELGEGLLERFFMPLLRSKFGENAEKVSYAWLLGRVAIRSNRKYSGEEIGYIRHGFQQLVDKMAEGLEIRRERARIRKNARWDVNGEDFDAVVYTAPLSELGELAEKLGIPEVRYQSSVCALIGAEETLTENIYWTNIADKMSFGAVIEHTNFMPFEDYGIHLMYLAAYSTPDGWLFNLSDKEIEKLFLSDLRKLGFKTESVRFVRVFKAKYSGPIYEKGYRRKITPYRVAEGFYVAGMTSRPNYPERSMNGSIRAGKEVAEQVKEDLLLEHHHHHH,soluble
11,MNLVPPKEEENLIVFNKQLGEDRRIVMSRSNLNELLKALEENELLCTDLYQVNTDGVILTKQRAEKVIGWARNHYLSSCPSPSIKEGRLILPRESIEISVKRLKAQEDISRKPTQNLKRFLFLQNIAKDEFETNFVSAVVAPGEIGVKFDDIGALEHVKKTLNELVILPMRRPELFTRGNLLRPCKGILLFGPPGTGKTLLAKALATEAGANFISITGSTLTSKWFGDAEKLTKALFSFASKLAPVIIFVDEVDSLLGARGGAFEHEATRRMRNEFMAAWDGLRSKDSQRILILGATNRPFDLDDAVIRRLPRRIYVDLPDAENRLKILKIFLTPENLETGFEFDKLAKETEGYSGSDLKNLCIAAAYRPVQELLQEENKDSVTNASPDLRPLSLDDFIQSKAKVSPSVAYDATTMNELRKWNEQYGEGGTRTKSPFGF,soluble
12,MNKRNTQQRRHSIISILNEQGEVSVDELSLRFETSEVTIRKDLAELEKTGLLLRRYGGAVAIPDEVTQQFSAKIAPNKLSIAKAAAQLIKDHNRIIIDSGTTTSGLIAELNQKRGLVVMTNALHLANAIHELENEPTLLMTGGTWDPHSESFQGQVAEQVLRSYNFDQLFIGADGIDLARGTTTFNELTGLSKVMAEVSREVIVMVDSDKIGKRIPNLELPWSKISVLVTDARIEESALKQITEQGVKVILAPYSPLEHHHHHH,soluble
13,MGSDKIHHHHHHMAVPLPVSARKDTVVPVLMYHDVSNHFHDPFTISPALFAAHMEWLHAAGYRAVTVGEALAGRGATAGKMVVITFDDGYASFLDYVHPLLLQYGFSAAISVIGSHVGTWLERDGRRPMLSWDEYRYLAARRVEVGCHAYHLHAIERLRHASADELAEDLELFQKTMAREMGRRATLLAWPYGIYTSERVQIARQAGFVHILTSNEGYVDDGTDPGAIPRLNIDNRLDLVSFSNYLRGE,not soluble
14,QSELTQPRSVSGSPGQSVTISCTGTSRDVGGYNYVSWYQQHPGKAPKLIIHDVIERSSGVPDRFSGSKSGNTASLTISGLQAEDEADYYCWSFAGSYYVFGTGTDVTVLGQPKANPTVTLFPPSSEELQANKATLVCLISDFYPGAVTVAWKADGSPVKAGVETTKPSKQSNNKYAASSYLSLTPEQWKSHRSYSCQVTHEGNTVEKTVAPT,soluble
15,AWQARGLGTARLQLVEFSAFVEPPDAVDSYQRHLFVHISQHCPSPGAPPLESVDVRQIYDKFPEKKGGLRELYDRGPPHAFFLVKFWADLNWGPSGEEAGAGGSISSGGFYGVSSQYESLEHMTLTCSSKVCSFGKQVVEKVETERAQLEDGRFVYRLLRSPMCEYLVNFLHKLRQLPERYMMNSVLENFTILQVVTNRDTQELLLCTAYVFEVSTSERGAQHHIYRLVRD,soluble
16,MGSDKIHHHHHHMNLQQLAVFREVMETGSVSAAARNLGRTQPAVSASLKALEVNLGIALFEREGRRLVPVPEAHYLLSEAAEILARVNTTEMNLVGMRNRTRGSLSVVGMPGPSVYLLPDFVSRFGSKADDLKISLSTRSSPQILNLIAAQAFDVGFCDLGFCDMSAEDLNSSLYHTKTIMSDCLCALPAQHPLAGRAVIDARQLSGERMGVLAGTHSTNRDTRAAFEQAGAVFNPRVEAQYFIPLLRFVEAGQICTVLDPLSAETYKRMNGGEVGIWFARFLPSVRFGYSIVTPKQRPLSLLAQDFVDGWSDHVREIIADHS,not soluble
17,MSLKAIIYCRVSTEKTSQETSLARQKHELLTLANKHALEVVATLEERASGFSLDRPVLLECIDAFQRGQADILLCQDDTRLARGHSKIALLHQLRKLGVSIYTIRDQGELRLSEADEMVLDIVAIVEEYQRKLHNKKIKRGMKQAVKNGYRPERNIKQGVSGGRERKELPIKEIVRLRQKNLTFHEIALTLQGLGFNVSKATVHRRYQEYMDEQLHGEGHHHHHH,soluble
18,MFEALKEVLGEINSKLAAVNNELSSKIMSENIVSTRPVAQAQYCGPYKLEKTLGKGQTGLVKTGTHCITGRKVAIKIVNKEKLSESVLQKVEREIAIMKLIEHPHVLHLYDVYENKKYLYLLLEHVSGGELFDYLVRKGRLMSKEARKFFRQIISALDFCHAHNICHRDLKPENLLLDERNNIKVADFGMASLQVEGSMLETSCGSPHYACPEVIRGEKYDGRKADVWSCGVILYALLVGALPFDDDNLRNLLEKVKRGVFHIPHFVPADVQSLLRAMIEVDPGKRYSLADVFKHPWVSGTTKADPELELPMSQVVQTHVIPGEDSIDPDVLRHMNCLGCFKDKQKLINELLSPKHNTEKMVYFLLLDRKRRRPAQEDDTEIVLRGAAQNNDPPKKRTDSSRTSRYPMGSIADGSPINPRKTYGRNQKSGRHSSLGGSPTESPRSSTRDLFGSSSSGSYSARAGEDRDRGRSASRSTNSYHYYTQPVDPQTLAEAARHVRDAQERRESRDSGRGSSRKESKDRSDKSASSSSCKNDASSTSSVPHKYSPPSVMSESVVVSSSTMNSTNSSTNSLIAGNSQTSIGSTSGPWRSKLNNIKNSFLGTPRFHRRKMSNGTAESDSEDSQMIDTTDLVKKSWFGSLASSMSVERDDTHCVPVQGKTLNSIKAELIRAFLQIHELSHSVVGQNCFRVEYKRGPTVGGSVFSRGIKMNVDIIPSPQQVVIAGETPTYVVQFVLLAGPVRRFKRLVEHLSAILQNSTQQRADRQQQAALMVRPRRLSDSSVGSACSDSESNASSINMIARHSDKTETTSATSSDPYGPSPSMRSVGSGTANSYKSPTPHRRNTTAVTASSSSASNRYGPSSSSSGSYSNNADYSYHPEYSQRSNGSSAPKNQYSPGSQRSFAFSMFNKADKV,not soluble
19,MKFLNVLIVVEDIEKSKKFYYDVLGLKVICDFGENVVLEGNISLQEKKLWLEFINKSDSEVKFNGNDAELYFEEDNFDTFVERLSTMKDIDYVHLAIEHRWGQRAIRFYDLDGHIIEVGETMSSVCRRFLDSGLSIDEVAKRMDVTVEYIESVLELEHHHHHH,soluble
